In the nanobody polyreactivity screen of Harvey et al. (2022):

Assay: yeast display, Sf9 membrane polyspecificity reagent, FACS + sequencing; frameworks hold sequencing errors
How it was run: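 Synthetic nanobody libraries on Saccharomyces cerevisiae BJ5465 were galactose-induced for 36–48 hours, stained 1 hour at 4 °C with 10% biotinylated, detergent-solubilized Sf9 membrane reagent and enriched on streptavidin microbeads. FACS then separated cells into low and high (top ~1%) gates by anti-HA (expression) and streptavidin (reagent binding) fluorescence. Genes were colony-PCR amplified, MiSeq 2 × 250 sequenced and CDR-length filtered. A clone's polyreactivity label is that of its gate of origin.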

Row | Sequence | polyreactivity (PSR sort gate)
1 | QVQLVESGGGLVQAGGSLRLSCAASGLISGDYAMGWYRQAPGKERELVARITSGDSTNYADSVKGRFTISRDNAKNTVYLQMNSLKPEDTAVYYCAAKRYVFQNDYWGQGTQVTVSS | low polyreactivity
2 | QVQLVESGGGLVQAGGSLRLSCAASGLNFARNAMGWYRQAPGKERELVASITSGGSTNYADSVKGRFTISRDNAKNTVYLQMNSLKPEDTAVYFCNKAYFFPYPRYRYEYWGQGTQVTVSS | high polyreactivity
3 | QVQLVESGGGLVQAGGSLRLSCAASGLTFADYAMGWYRQAPGKERELVAAISRRGGSTYYADSVKGRFTISRDNAKNTVYLQMNSLKPEDTAVYYCAAGNRVNRFDYWGQGTQVTVSS | high polyreactivity
4 | QVQLVESGGGLVQAGGSLRLSCAASGLTFAFYAMGWYRQAPGKEREFVAAITTGGSTYYADSVKGRFTISRDNAKNTVYLQMNSLKPEDTAVYYCAADLYRRRGQFDYWGQGTQVTVSS | high polyreactivity
5 | QVQLVESGGGLVQAGGSLRLSCAASGLTFAQNAMGWYRQAPGKERELVAAITRSGGRTYYADSVKGRFTISRDNSKNTVYFQMNSLKPEDTAVYYCAARVLQYSGYYYWGQGTQVTVSS | high polyreactivity
6 | QVQLVESGGGLVQAGGSLRLSCAASGLTFARYAMGWYRQAPGKERELVAGISWSGGRTYYADSVKGRFTISRDNAKNTVYLQMNSLKPEDTAVYYCATTQFQRSGYYYWGQGTQVTVSS | high polyreactivity
7 | QVQLVESGGGLVQAGGSLRLSCAASGLTFAVYAMGWYRQAPGKERELVAAITYSGSRTYYADSVKGRFTISRDNAKNTVYLQMNSLKPEDTAVYYCNALYRRDIKFYYWGQGTQVTVSS | high polyreactivity
8 | QVQLVESGGGLVQAGGSLRLSCAASGLTFAYYAMGWYRQAPGKERELVAVISSAGSTYYADSVKGRFTISRDNAKNTVYLQMNSLNPEDTAVYYCAARAPSSISQTRGMYYWGQGTQVTVSS | high polyreactivity
9 | QVQLVESGGGLVQAGGSLRLSCAASGLTFAYYVMGSYRQAPWKERELVAAISRRGGSTYYADSVKGRFTISRDNAKNTVYLQMNSLKPEDTAVYYCNTDWPLPNGGEPGYWGQGTQVTVSS | high polyreactivity
10 | QVQLVESGGGLVQAGGSLRLSCAASGLTFDAYAMGWYRQAPGKERELDAAISSGGNTYYADSVKGRFTISRDNAKNTVYLQMNSLKPEDTAVYYCNAVGYYKYFFLAYEYDYWGQGTQVTVSS | low polyreactivity
11 | QVQLVESGGGLVQAGGSLRLSCAASGLTFDNYAMGWYRQAPGKERELVAAISTSSGRTYYADSVKGRFTISRDNAKNTVYLQMNSLKPEDTAVYYCAAEVAFIYSYYEVYKYEYWGQGTQVTVSS | high polyreactivity
12 | QVQLVESGGGLVQAGGSLRLSCAASGLTFDSYTMGWYRQAPGKERELVAAITNSGGSTYYADSVKGRFTISRDNAKNTVYLQMNSLKPEDTAVYYCAAFRTSRLYGGSYGYWGQGTQVTVSS | high polyreactivity
13 | QVQLVESGGGLVQAGGSLRLSCAASGLTFEHNAMGWYRQAPGKEREFVAVISWRGTSTYYADSVKGRFTISRDNAKNTVYLQMNSLKPEATAVYYCAAGYRGVANRKWIYYYWGQGTQVTVSS | high polyreactivity
14 | QVQLVESGGGLVQAGGSLRLSCAASGLTFERNAMGWYRQAPGKERELVAAISSGGSTYYADSVKGRFTISRDNAKNTVYLQMNSLKPEDTAVYYCAVYDWNSYFYRSWWSGFYYWGQGTQVTVSS | low polyreactivity
15 | QVQLVESGGGLVQAGGSLRLSCAASGLTFESYAMGWYRQAPGKERELVAGIDWSGGSTYYADSVKGRFTISRDNAKNTVYLQMNSLKPEDTAGYYCKRYGNSNYFAPGPLYNYWGQGTQVTVSS | high polyreactivity
16 | QVQLVESGGGLVQAGGSLRLSCAASGLTFFGYPMGWYRQAPGKEREFVADITWSGGSTYYADSVKGRFTISRDNAKNTVYLQMNSLKPEDTAVYYCAADYHKAEFNYWGQGTQVTVSS | low polyreactivity
17 | QVQLVESGGGLVQAGGSLRLSCAASGLTFFRNAMGWYRQAPGKEREFVAGITSTDGSTYYADSVKGRFTISRDNAKNTVYLQMNSLKPEDTAVYYCAAAYRVRGRTYDSWGQGTQVTVSS | high polyreactivity
18 | QVQLVESGGGLVQAGGSLRLSCAASGLTFGDYAMGWYRQAPGKERELVAAITKSGGRTYYADSVKGRFTISRDNAKNTVYLQMNSLKPEDTEVYYCATRKGRRYGYNYWGQGTQVTVSS | high polyreactivity
19 | QVQLVESGGGLVQAGGSLRLSCAASGLTFGDYTMGWYRQAPGKERELVAAITWSGASTYYADSVKGRFTISRDNAKNTVYLQMHSLKPEDTAVYYCAAERTPSYRAYDYWGQGTKVTVSS | low polyreactivity
20 | QVQLVESGGGLVQAGGSLRLSCAASGLTFGDYVMGWYRPAPGKERELVATITSDGGTTYADSVKGRFTISRDNAKNTVYLQMNSLKPEDTAVYYCNADAVVDNYVGFSAAGYDYWGQGTQVTVSS | low polyreactivity
21 | QVQLVESGGGLVQAGGSLRLSCAASGLTFGKYAMGWYRQAPGKERELVAAISRRGGSTYYADSVKGRFTISRDNANNTVYLQMNSLKPEDTAVYFCNTDTKHTGLDYWGQGTQVTVSS | high polyreactivity
22 | QVQLVESGGGLVQAGGSLRLSCAASGLTFGNYAMGSYRQAPGKERELVAAITSGGSTYYADSVKGRFTISRDNAKNTVYLQMNSLKPEDTAVYYCAKRQSQHYRSYLMDYWGQGTQVTVSS | low polyreactivity

Row | Sequence | polyreactivity (PSR sort gate)
23 | QVQLVESGGGLVQAGGSLRLSCAASGLTFGRYAMGWYRQAPGKERELVAAISSGGSTYYADSVKGRFTISRDNAKNTVYLQMNSLKPEDTAVYYCAADYVGWYFVSGRDYWGQGTQVTVSS | low polyreactivity
24 | QVQLVESGGGLVQAGGSLRLSCAASGLTFGRYAMGWYRQAPGKERELVAAITWIGDGTYYGDSVKGRFTISRDNAKKTVYLQMNSLTPEDTAVYYCAAVYYTYLYGRYNYWGQGTQVTVSS | low polyreactivity
25 | QVQLVESGGGLVQAGGSLRLSCAASGLTFGRYAMGWYRQAPGKERELVAVINGSGGNTYYADSVKGRFTISRDNAKNTVYLQMNSLKPEDTAVYYCAARRTVQYTLYYYPDYNYWGQGTQVTVSS | low polyreactivity
26 | QVQLVESGGGLVQAGGSLRLSCAASGLTFGSNGMGWYRQAPGKERELVAAISRGGSTSYADSVKGRFTISRDNAKNTVYLQMNSLKPEDTAVYYCAARSYRYSYRYRAFDYWGQGTQVTVSS | high polyreactivity
27 | QVQLVESGGGLVQAGGSLRLSCAASGLTFGTNAMGWSRQAPGKERELVAAISTSSGSTYYSDSVKGRFTISRDNAKNTDYLQMNSLKPEDTAVYYSAAVTVTNLSYYRYYYWGQGTQVTVSS | low polyreactivity
28 | QVQLVESGGGLVQAGGSLRLSCAASGLTFGTYAMGWYRPAPGKERELVAAIRSGGSTNYADSVKGRFTISRDNAKNTVYLQMNSLKPEDTAVYYCAKRYYWDRYYYWGQGTQVTVSS | high polyreactivity
29 | QVQLVESGGGLVQAGGSLRLSCAASGLTFGVNAMGWYRQAPGKERELVAVITSGGNTYYADSVKGRFTISRDNAKNTVYLQMNSLKPEDTAVYYCAAYGRASWERDYWGQGTQVTVSS | low polyreactivity
30 | QVQLVESGGGLVQAGGSLRLSCAASGLTFHAYAMGWYRQPPGKEREFVAAITRSGSSTSYADSVKGRFTISRDNAKNTVYLQMNSLKPEDTAVYYCAAQGSRKYRNDYWGQGTQVTVSS | high polyreactivity
31 | QVQLVESGGGLVQAGGSLRLSCAASGLTFHSNDMGRYRQAPWKETEFVAAITSGGNTYYADSVKGRFTISRDNAKNTVYLPMNSLKPEDTAVYYCNADYQDEEDDYWGQGTQVTVSS | low polyreactivity
32 | QVQLVESGGGLVQAGGSLRLSCAASGLTFIVYAMGWYRPAPGKERELVADITWSGGSTYYADSLKGRFTISRDNAKNTVYLQMNSLKPEATAVYYCNRQSAKIMDYWGQGTQVTVSS | low polyreactivity
33 | QVQLVESGGGLVQAGGSLRLSCAASGLTFIYNAMGWYRQAPGKERELVAAISGNGGDTYYADSVKGRFTISRDNAKNTVYIQMNSLKPEDTAVYYCAADYAYTPITWDEYWGQGTQVTVSS | low polyreactivity
34 | QVQLVESGGGLVQAGGSLRLSCAASGLTFKENVMGWYRQAPGKERELVAAISTGASTYYADSVKGRCTISRDNAKNTVYLQMNSLKPEDTAVYYGAKRVTRWYGYWGQGTQVTVSS | high polyreactivity
35 | QVQLVESGGGLVQAGGSLRLSCAASGLTFKINAMGWYRQAPGKERELVAAIRSSGGRTYADSVKGRFTISRDNAKNTVYLQMNSLKPEDTAVYYCNKSPGYRSGRAVLYDYWGQGTQVTVSS | low polyreactivity
36 | QVQLVESGGGLVQAGGSLRLSCAASGLTFKLYVMGWYRQAPGKERELVAAISGGGSTYYADSVKGRFTISRDNAKNTVYLQMNSLKPEDTAVYYCAAVRYFEYEYWGQGTQVTVSS | low polyreactivity
37 | QVQLVESGGGLVQAGGSLRLSCAASGLTFKRYAMGWYRQAPGKERELVAGINYSSGSTYYADSVKARFTISRDNAKNTVYLQMNSLKPEDTAVYYCAADGGISAGANSGYDYWGQGTQVTVSS | high polyreactivity
38 | QVQLVESGGGLVQAGGSLRLSCAASGLTFKRYAMGWYRQAPGKERELVASITGNGGSTYYADSVKGRFTISRDNAKNTVYLQMNSLIPEDTAVYYCNSRRYVRTSQQPLYDYWGQVTQVTVSS | high polyreactivity
39 | QVQLVESGGGLVQAGGSLRLSCAASGLTFKSYAMGWYRQAPGKERELVAAISWRGGRTYYADSVKGRFTISRDNAKNTVYLQMNSLKPEDTAVYYCNARSQQWWLSRYNYWGQGTQVTVSS | high polyreactivity
40 | QVQLVESGGGLVQAGGSLRLSCAASGLTFKYYAMGWYRQAPGKERELVAAITYSVGTTYYADSVKGRFTISRDNAKNTVYLQMNSLKPEDTAVYYCAADFAPVGLPSPYAVSEGEDDYWGQGTQVTVSS | low polyreactivity
41 | QVQLVESGGGLVQAGGSLRLSCAASGLTFLFYAMGWYRHATGKERELVASIRWSDGRTYYADSVKGRFTISRDNAKNTVYLQMNSLKPEDTAVYYCAVVPAYVYLNREYYWGQGTQVTVSS | high polyreactivity
42 | QVQLVESGGGLVQAGGSLRLSCAASGLTFLNNAMGWYRQAHGKERELVAAISDGGSTNYADSVKGRFTISRDNAKNTVYLQMNSLKPEDTAVYYCGADYTSASYGSWGQGTQVTVSS | low polyreactivity
43 | QVQLVESGGGLVQAGGSLRLSCAASGLTFLRYAMGWYRQAPGKERELVATISASDGDTYYADSVKGRFTISGDNAKNTVYLQMNSLKPEDTAVYYCAADDIYKYYQYYAFPYYRYDDWGQGTEVTVSS | low polyreactivity
